Assay results: paper PMC12667517, “Gigaxonin Potentiates Antiviral Innate Immune Responses by Targeting cGAS and TREX1” (Advanced Science, 2025)

Tests used:
[1] = biological target: T1, endogenous IRF3 in THP-1 cells (human (endogenous in THP-1)), Q14653; experiment: native gel or EMSA; native PAGE of THP-1 cell lysates, cells infected with HSV-1 (MOI = 1) for the indicated times; details: remark: other sources report otherwise
T1 chain: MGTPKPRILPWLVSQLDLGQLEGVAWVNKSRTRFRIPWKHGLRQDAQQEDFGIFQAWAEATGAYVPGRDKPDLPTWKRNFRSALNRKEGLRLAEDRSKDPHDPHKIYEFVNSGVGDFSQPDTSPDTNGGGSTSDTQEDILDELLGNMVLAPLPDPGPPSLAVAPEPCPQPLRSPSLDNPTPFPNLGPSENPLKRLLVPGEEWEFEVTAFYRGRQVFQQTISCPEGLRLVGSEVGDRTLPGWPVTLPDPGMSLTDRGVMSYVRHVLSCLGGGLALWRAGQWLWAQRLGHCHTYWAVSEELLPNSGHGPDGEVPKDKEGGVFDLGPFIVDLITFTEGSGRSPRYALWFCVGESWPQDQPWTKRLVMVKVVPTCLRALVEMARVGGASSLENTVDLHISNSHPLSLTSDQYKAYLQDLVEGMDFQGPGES

[2] = biological target: the molecule itself; experiment: as above

| Binder | stoichiometry N [1] | stoichiometry N [2] |
| --- | --- | --- |
| endogenous IRF3 in THP-1 cells, Q14653 1-427 (natural protein) MGTPKPRILPWLVSQLDLGQLEGVAWVNKSRTRFRIPWKHGLRQDAQQEDFGIFQAWAEATGAYVPGRDKPDLPTWKRNFRSALNRKEGLRLAEDRSKDPHDPHKIYEFVNSGVGDFSQPDTSPDTNGGGSTSDTQEDILDELLGNMVLAPLPDPGPPSLAVAPEPCPQPLRSPSLDNPTPFPNLGPSENPLKRLLVPGEEWEFEVTAFYRGRQVFQQTISCPEGLRLVGSEVGDRTLPGWPVTLPDPGMSLTDRGVMSYVRHVLSCLGGGLALWRAGQWLWAQRLGHCHTYWAVSEELLPNSGHGPDGEVPKDKEGGVFDLGPFIVDLITFTEGSGRSPRYALWFCVGESWPQDQPWTKRLVMVKVVPTCLRALVEMARVGGASSLENTVDLHISNSHPLSLTSDQYKAYLQDLVEGMDFQGPGES | 2 |  |
| endogenous gigaxonin in THP-1 cells (natural protein, human (endogenous in THP-1), UniProt Q9H2C0 1-597, looked up, By native PAGE both dimer and monomer in the steady state; source: endogenous, THP-1 lysate) MAEGSAVSDPQHAARLLRALSSFREESRFCDAHLVLDGEEIPVQKNILAAASPYIRTKLNYNPPKDDGSTYKIELEGISVMVMREILDYIFSGQIRLNEDTIQDVVQAADLLLLTDLKTLCCEFLEGCIAAENCIGIRDFALHYCLHHVHYLATEYLETHFRDVSSTEEFLELSPQKLKEVISLEKLNVGNERYVFEAVIRWIAHDTEIRKVHMKDVMSALWVSGLDSSYLREQMLNEPLVREIVKECSNIPLSQPQQGEAMLANFKPRGYSECIVTVGGEERVSRKPTAAMRCMCPLYDPNRQLWIELAPLSMPRINHGVLSAEGFLFVFGGQDENKQTLSSGEKYDPDANTWTALPPMNEARHNFGIVEIDGMLYILGGEDGEKELISMECYDIYSKTWTKQPDLTMVRKIGCYAAMKKKIYAMGGGSYGKLFESVECYDPRTQQWTAICPLKERRFGAVACGVAMELYVFGGVRSREDAQGSEMVTCKSEFYHDEFKRWIYLNDQNLCIPASSSFVYGAVPIGASIYVIGDLDTGTNYDYVREFKRSTGTWHHTKPLLPSDLRRTGCAALRIANCKLFRLQLQQGLFRIRVHSP |  | 2 |
